Measured values: US20220017611A1
Substitutions are numbered along the chain they refer to.

Biological target: Tau RD (MTBD) P301S fused to CFP or YFP, in HEK293 Tau RD P301S FRET Biosensor cells (UniProt P10636)
Test: cell-based or functional assay

Chain of Tau RD (MTBD) P301S fused to CFP or YFP, in HEK293 Tau RD P301S FRET Biosensor cells (P10636 561-689 P618S): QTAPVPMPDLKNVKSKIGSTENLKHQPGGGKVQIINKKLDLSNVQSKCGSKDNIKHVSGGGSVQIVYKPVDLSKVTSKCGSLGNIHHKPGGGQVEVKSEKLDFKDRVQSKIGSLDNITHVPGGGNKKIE

B1: mCherry-VHH E4-1 (VHH, not shown: large carriers)
VHH: EVQLQASGGGFVQPGGSLRLSCAASGATSTFDGMGWFRQAPGKEREFVSAISYEQGSYTYYADSVKGRFTISRDNSKNTVYLQMNSLRAEDTATYYCAPAYEGDLYAFDSYWGQGTQVTVSS
mCherry-gated FRET positive cells after MTBD seeds: 15.2%
seeding inhibition against mCherry-VHH F8-2: 7.8%

B2: mCherry-VHH Z70 (VHH, not shown: large carriers)
VHH: B1 VHH with G10V, P14S, T79M, W112G
mCherry-gated FRET positive cells after MTBD seeds: 9.9%
seeding inhibition against mCherry-VHH F8-2: 40%

B3: mCherry-VHH Mut1 (VHH, not shown: large carriers)
VHH: B1 VHH with G10V, P14S, T79M, W112G, G113E
mCherry-gated FRET positive cells after MTBD seeds: 8.2%
seeding inhibition: 50%

B4: mCherry-VHH Mut3 (VHH, not shown: large carriers)
VHH: B1 VHH with G10V, P14S, R45K, T79M, W112G
mCherry-gated FRET positive cells after MTBD seeds: 8.2%
seeding inhibition: 50%

B5: mCherry-VHH Mut12 (VHH, not shown: large carriers)
VHH: AEVQLQASGGVFVQSGGSLRLCCAASGATSTFDGMGWFRQAPGKEREFVSAISYEQGSYTYYADSVKGRFTISRDNSKNMVYLQMNSLRAEDTATYYCAPAYEGDLYAFDSYGEQGTQVTVSS
mCherry-gated FRET positive cells after MTBD seeds: 8.5%
seeding inhibition: 48%

B6: mCherry-VHH Mut5 (VHH, not shown: large carriers)
VHH: B1 VHH with G10V, P14S, T79M, T94S, W112G
mCherry-gated FRET positive cells after MTBD seeds: 12.1%
seeding inhibition: 27%

B7: mCherry-VHH Mut14 (VHH, not shown: large carriers)
VHH: B1 VHH with G10V, P14S, T30I, E54G, T79M, W112G, G113E
mCherry-gated FRET positive cells after MTBD seeds: 12.7%
seeding inhibition: 23%

B8: mCherry-VHH Mut20 (VHH, not shown: large carriers)
VHH: B1 VHH with G10V, P14S, R45K, T79M, W112G, G113E
mCherry-gated FRET positive cells after MTBD seeds: 11.2%
seeding inhibition: 32%
